± gives the uncertainty stated by the source.
Test: self-splicing fitness, log relative to wild type (ln ratio); higher = more splicing; Tetrahymena group I intron in knt gene, E. coli kanamycin selection, DiMSum; sequences stand for … in CUCUCU…GGAGGGAAAAGUUAUCAGGCAUGCACCUGGUAGCUAGUCUUUAAACCAAUAGAUUGCAUCGGUUUAAAAGGCAAGACCGUCAAAUUGCGGGAAAGGGGUCAACAGCCGUUCAGUACCAAGUCUCAGGGGAAACUUUGAGAUGGCCUUGCAAAGGGUAUGGUAAUAAGCUGACGGACAUGGUCCUAACCACGCAGCCAAGUCCUAAGUCAACAGAUCUUCUGUUGAUAUGGAUGCAGUUCACAGACUAAAUGUCGGUCGGGGAAGAUGUAUUCUUCUCAUAAGAUAUAGUCGGACCUCUCCUUAAUGGGAGCUAGCGGAUGAAGUGAUGCAACACUGGAGCCGCUGGGAACUAAUUUGUAUGCGAAAGUAUAUUGAUUAGUUUUGGAGUACUCGUGGUCG
Method in brief: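 DiMSum derived fitness as the error-weighted combination of fold changes across replicates, kanamycin versus no kanamycin, normalised to wild type. E. coli BL21(DE3) held the library, which randomised all eight P1ex-region intron nucleotides within the knt kanamycin-resistance gene on pET-22b(+). Six replicate transformations grew overnight at 37°C or 30°C on LB agar with or without 25 μg/mL kanamycin, also containing 100 μg/mL carbenicillin, 50 μM IPTG and 0.2% rhamnose, and pooled colonies were amplicon-sequenced on an Illumina HiSeq 2500.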

Row | Sequence | self-splicing fitness (ln) (30 °C) | self-splicing fitness (ln) (37 °C)
1 | AGCAAGCAAUAUUACGCCCG | -0.279 ± 0.08 | -0.0697 ± 0.11
2 | AGCAAGCAAUAUUACGCCGG | -3.71 ± 0.37 | -1.81 ± 0.24
3 | AGCAAGCAAUAUUACGCGGC | -3.39 ± 0.34 | -1.82 ± 0.19
4 | AGCAAGCAAUAUUACGCUCU | -3 ± 0.22 | -1.57 ± 0.17
5 | AGCAAGCAAUAUUACGGCCC | 0.104 ± 0.19 | -0.363 ± 0.28
6 | AGCAAGCAAUAUUACGGCGA | -0.386 ± 0.094 | -0.039 ± 0.11
7 | AGCAAGCAAUAUUACGGCGG | -1.29 ± 0.083 | 0.133 ± 0.11
8 | AGCAAGCAAUAUUACGGUGU | -2.65 ± 0.13 | -0.608 ± 0.1
9 | AGCAAGCAAUAUUACGUACG | -1.99 ± 0.13 | -0.695 ± 0.11
10 | AGCAAGCAAUAUUACGUACU | -0.47 ± 0.057 | -0.368 ± 0.075
11 | AGCAAGCAAUAUUACGUAUU | -3.02 ± 0.14 | -1.24 ± 0.11
12 | AGCAAGCAAUAUUACGUCUA | -0.673 ± 0.062 | -0.456 ± 0.08
13 | AGCAAGCAAUAUUACGUCUC | -2.61 ± 0.29 | 
14 | AGCAAGCAAUAUUACGUGGG | -3.44 ± 0.12 | -2.37 ± 0.16
15 | AGCCAGCAAUAUUACGAACA | -2.8 ± 0.24 | -1.98 ± 0.33
16 | AGCCAGCAAUAUUACGAAUC |  | -1.94 ± 0.39
17 | AGCCAGCAAUAUUACGAGAA | -2.99 ± 0.36 | -1.42 ± 0.3
18 | AGCCAGCAAUAUUACGAGAC | -3.57 ± 0.18 | -2.61 ± 0.16
19 | AGCCAGCAAUAUUACGAGGC | -3.6 ± 0.2 | -2.02 ± 0.19
20 | AGCCAGCAAUAUUACGAGGG | -2.58 ± 0.15 | -2.38 ± 0.17
21 | AGCCAGCAAUAUUACGAUAA | -4.66 ± 0.46 | -2.89 ± 0.17
22 | AGCCAGCAAUAUUACGAUAU | -3.25 ± 0.16 | -1.83 ± 0.14
23 | AGCCAGCAAUAUUACGAUCU | -0.174 ± 0.11 | 0.256 ± 0.1
24 | AGCCAGCAAUAUUACGCAGA | -3.39 ± 0.18 | -2.94 ± 0.18
25 | AGCCAGCAAUAUUACGCAGU | -4 ± 0.2 | -3.46 ± 0.21
26 | AGCCAGCAAUAUUACGCCCA | -1.93 ± 0.2 | -1.72 ± 0.25

Row | Sequence | self-splicing fitness (ln) (30 °C) | self-splicing fitness (ln) (37 °C)
27 | AGCCAGCAAUAUUACGCCCU | 0.0781 ± 0.11 | 0.234 ± 0.13
28 | AGCCAGCAAUAUUACGCCGC | -2.98 ± 0.28 | -3.25 ± 0.37
29 | AGCCAGCAAUAUUACGCCUG | -2.37 ± 0.16 | -2.11 ± 0.27
30 | AGCCAGCAAUAUUACGCGAC | -0.935 ± 0.13 | -1.78 ± 0.2
31 | AGCCAGCAAUAUUACGCUGU | -3.57 ± 0.2 | -3.32 ± 0.19
32 | AGCCAGCAAUAUUACGGAAA | -1.88 ± 0.3 | -1.3 ± 0.25
33 | AGCCAGCAAUAUUACGGACA | -0.814 ± 0.1 | -0.491 ± 0.13
34 | AGCCAGCAAUAUUACGGACC | -0.609 ± 0.095 | -0.386 ± 0.11
35 | AGCCAGCAAUAUUACGGACU | -1.93 ± 0.088 | -0.917 ± 0.096
36 | AGCCAGCAAUAUUACGGAUG | -1.85 ± 0.1 | -0.824 ± 0.12
37 | AGCCAGCAAUAUUACGGCGA | -1.33 ± 0.095 | -0.342 ± 0.11
38 | AGCCAGCAAUAUUACGGGCG | -2.66 ± 0.1 | -0.918 ± 0.1
39 | AGCCAGCAAUAUUACGGGGA | -1.87 ± 0.12 | -0.713 ± 0.11
40 | AGCCAGCAAUAUUACGGUCA | -0.0408 ± 0.09 | 0.4 ± 0.093
41 | AGCCAGCAAUAUUACGUCUA | -3 ± 0.21 | -2.05 ± 0.19
42 | AGCCAGCAAUAUUACGUGUG | -3.01 ± 0.09 | -1.61 ± 0.086
43 | AGCGAGCAAUAUUACGACGG | -3.17 ± 0.44 | -1.81 ± 0.26
44 | AGCGAGCAAUAUUACGAGGC | -3.16 ± 0.44 | 
45 | AGCGAGCAAUAUUACGAGUC | -3.91 ± 0.42 | -2.24 ± 0.24
46 | AGCGAGCAAUAUUACGAUCC |  | -0.865 ± 0.49
47 | AGCGAGCAAUAUUACGAUCU | -0.233 ± 0.09 | -0.579 ± 0.12
48 | AGCGAGCAAUAUUACGAUGG | -4.61 ± 0.42 | -2.68 ± 0.24
49 | AGCGAGCAAUAUUACGCACG | -3.64 ± 0.45 | 
50 | AGCGAGCAAUAUUACGCACU | -1.62 ± 0.2 | -1.37 ± 0.29
51 | AGCGAGCAAUAUUACGCCAC | -1.84 ± 0.39 | 
52 | AGCGAGCAAUAUUACGCGCA | -0.891 ± 0.23 | -0.546 ± 0.2

Row | Sequence | self-splicing fitness (ln) (30 °C) | self-splicing fitness (ln) (37 °C)
53 | AGCGAGCAAUAUUACGCUAU |  | -2.87 ± 0.24
54 | AGCGAGCAAUAUUACGCUCA | -2.59 ± 0.21 | -2.5 ± 0.26
55 | AGCGAGCAAUAUUACGGAAC | -3.53 ± 0.32 | -1.5 ± 0.29
56 | AGCGAGCAAUAUUACGGCAC | -1.57 ± 0.22 | -0.495 ± 0.3
57 | AGCGAGCAAUAUUACGGCGG | -1.1 ± 0.19 | -1.8 ± 0.24
58 | AGCGAGCAAUAUUACGGCGU | -0.762 ± 0.11 | -0.808 ± 0.093
59 | AGCGAGCAAUAUUACGGCUG | -1.47 ± 0.12 | -0.625 ± 0.15
60 | AGCGAGCAAUAUUACGGGUU | -2.83 ± 0.2 | -1.09 ± 0.15
61 | AGCGAGCAAUAUUACGGUGU | -2.55 ± 0.24 | -2.37 ± 0.24
62 | AGCGAGCAAUAUUACGUAAG |  | -1.76 ± 0.37
63 | AGCGAGCAAUAUUACGUAAU | -3.21 ± 0.14 | -2.04 ± 0.14
64 | AGCGAGCAAUAUUACGUAGU | -4.11 ± 0.16 | -1.11 ± 0.13
65 | AGCGAGCAAUAUUACGUCCC | -1 ± 0.11 | -0.699 ± 0.14
66 | AGCGAGCAAUAUUACGUGAA | -3.44 ± 0.19 | -1.23 ± 0.2
67 | AGCGAGCAAUAUUACGUUAA | -3.86 ± 0.37 | -2.67 ± 0.3
68 | AGCGAGCAAUAUUACGUUCA | -1.81 ± 0.096 | -0.891 ± 0.091
69 | AGCGAGCAAUAUUACGUUGU | -3.39 ± 0.13 | -3.31 ± 0.15
70 | AGCUAGCAAUAUUACGAAGC | -3.35 ± 0.22 | -2.43 ± 0.3
71 | AGCUAGCAAUAUUACGAAUA | -3.3 ± 0.27 | -2.35 ± 0.24
72 | AGCUAGCAAUAUUACGAGAU | -3.17 ± 0.19 | -1.22 ± 0.16
73 | AGCUAGCAAUAUUACGAGGA | -3.9 ± 0.35 | -2.42 ± 0.42
74 | AGCUAGCAAUAUUACGAGGC | -3.21 ± 0.24 | -1.96 ± 0.21
75 | AGCUAGCAAUAUUACGAUGC | -2.47 ± 0.12 | -2.12 ± 0.17
76 | AGCUAGCAAUAUUACGCAAU | -1.79 ± 0.19 | -1.77 ± 0.18
77 | AGCUAGCAAUAUUACGCCUU | -1.7 ± 0.1 | -0.609 ± 0.08
78 | AGCUAGCAAUAUUACGCUGA | -2.63 ± 0.18 | -0.955 ± 0.09
